Consider three molecules from patent US20100098693A1 (published 2010).

In assay [1] the target is T1, human insulin receptor extracellular domain (HIR ECD), lectin affinity purified from transfected CHO cells (human, UniProt P06213 28-956, limits assumed).
T1 construct: extracellular domain; Secreted ECD purified on a wheat germ agglutinin column
Description: ELISA, HIR ECD plated; printed as ED50 (second assay, run with the Gln-192 allozyme). For orientation: ELISA stands for enzyme-linked immunosorbent assay.
Description: (§1) The affinity of the HIRMAb-PON1 fusion protein for the HIR extracellular domain (ECD) was determined with an ELISA using the lectin affinity purified HIR ECD. Chinese hamster ovary (CHO) cells permanently transfected with the HIR ECD were grown in serum free media, and the HIR ECD was purified with a wheat germ agglutinin affinity column. The HIR ECD (0.2 ug/well) was plated on high binding 96-well plates, and the binding of the HIRMAb, or the HIRMAb-PON1 fusion protein to the HIR ECD was detected with a biotinylated goat anti-human IgG (H+L) antibody (0.3 μg/well), and the avidin-biotinylated peroxidase detection system.

For assay [2], the target named is T1, human insulin receptor extracellular …. The assay can be described thus: ELISA, HIR ECD plated, detection with biotinylated anti-human IgG; printed as ED50 (assay of FIG. 4).
Description: as §1
Assay [3] has the same target. The assay can be described thus: ELISA, HIR ECD plated, detection with biotinylated anti-human IgG; printed as ED50 (assay of FIG. 4, Arg-192 allozyme).
Description: as §1
The target is the same in assay [4]. The assay can be described thus: ELISA, HIR ECD plated; printed as ED50 (second assay, Gln-192 allozyme).
Description: as §1

B1: chimeric HIRMAb (chimeric monoclonal antibody to the human insulin receptor) (antibody, human IgG1, kappa)
heavy: not shown
light: DIQMTQSPSSLSASLGERVSLTCRASQDIGGNLYWLQQGPDGTIKRLIYATSSLDSGVPKRFSGSRSGSDYSLTISSLESEDFVDYYCLQYSSSPWTFGGGTKMEIKRTVAAPSVFIFPPSDEQLKSGTASVVCLLNNFYPREAKVQWKVDNALQSGNSQESVTEQDSKDSTYSLSSTLTLSKADYEKHKVYACEVTHQGLSSPVTKSFNRGEC
notes: Chimeric mouse/human IgG1 kappa; also called engineered HIRMAb
Take B1: the concentration for a half-maximal effect (EC50) (usually the midpoint of the concentration-response curve) in assay [1] stood at 0.48 nM; in assay [2], 0.55 nM.

B2: HIRMAb-PON1 fusion protein, Arg-192 allozyme (PON1 fused to the carboxyl terminus of the HIRMAb heavy chain) (antibody)
heavy: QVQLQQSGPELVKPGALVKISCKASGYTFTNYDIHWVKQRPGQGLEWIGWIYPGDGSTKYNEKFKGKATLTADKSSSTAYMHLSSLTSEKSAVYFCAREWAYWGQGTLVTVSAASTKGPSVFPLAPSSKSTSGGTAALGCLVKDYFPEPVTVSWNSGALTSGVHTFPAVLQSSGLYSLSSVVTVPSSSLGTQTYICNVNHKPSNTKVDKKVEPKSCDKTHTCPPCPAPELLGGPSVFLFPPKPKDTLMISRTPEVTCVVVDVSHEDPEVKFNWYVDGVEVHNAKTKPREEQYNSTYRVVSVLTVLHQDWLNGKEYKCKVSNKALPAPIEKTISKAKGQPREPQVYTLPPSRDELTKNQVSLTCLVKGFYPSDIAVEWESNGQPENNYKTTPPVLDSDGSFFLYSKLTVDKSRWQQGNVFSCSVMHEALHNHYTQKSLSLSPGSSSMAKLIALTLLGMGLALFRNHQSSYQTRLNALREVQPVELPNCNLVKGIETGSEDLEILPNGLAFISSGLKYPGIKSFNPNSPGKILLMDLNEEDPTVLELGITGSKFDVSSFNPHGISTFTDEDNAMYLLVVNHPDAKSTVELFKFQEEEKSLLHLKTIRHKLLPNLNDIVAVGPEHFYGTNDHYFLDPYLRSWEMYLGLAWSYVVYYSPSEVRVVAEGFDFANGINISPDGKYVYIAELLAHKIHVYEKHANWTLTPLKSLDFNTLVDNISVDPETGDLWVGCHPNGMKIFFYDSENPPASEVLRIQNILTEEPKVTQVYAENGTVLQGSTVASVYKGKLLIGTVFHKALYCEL
light: B1 light
notes: IgG-enzyme fusion antibody
B2 registered an EC50 in assay [3] of 1.1 nM.

B3: HIRMAb-PON1 fusion protein, Gln-192 allozyme (antibody, human IgG1, kappa)
heavy: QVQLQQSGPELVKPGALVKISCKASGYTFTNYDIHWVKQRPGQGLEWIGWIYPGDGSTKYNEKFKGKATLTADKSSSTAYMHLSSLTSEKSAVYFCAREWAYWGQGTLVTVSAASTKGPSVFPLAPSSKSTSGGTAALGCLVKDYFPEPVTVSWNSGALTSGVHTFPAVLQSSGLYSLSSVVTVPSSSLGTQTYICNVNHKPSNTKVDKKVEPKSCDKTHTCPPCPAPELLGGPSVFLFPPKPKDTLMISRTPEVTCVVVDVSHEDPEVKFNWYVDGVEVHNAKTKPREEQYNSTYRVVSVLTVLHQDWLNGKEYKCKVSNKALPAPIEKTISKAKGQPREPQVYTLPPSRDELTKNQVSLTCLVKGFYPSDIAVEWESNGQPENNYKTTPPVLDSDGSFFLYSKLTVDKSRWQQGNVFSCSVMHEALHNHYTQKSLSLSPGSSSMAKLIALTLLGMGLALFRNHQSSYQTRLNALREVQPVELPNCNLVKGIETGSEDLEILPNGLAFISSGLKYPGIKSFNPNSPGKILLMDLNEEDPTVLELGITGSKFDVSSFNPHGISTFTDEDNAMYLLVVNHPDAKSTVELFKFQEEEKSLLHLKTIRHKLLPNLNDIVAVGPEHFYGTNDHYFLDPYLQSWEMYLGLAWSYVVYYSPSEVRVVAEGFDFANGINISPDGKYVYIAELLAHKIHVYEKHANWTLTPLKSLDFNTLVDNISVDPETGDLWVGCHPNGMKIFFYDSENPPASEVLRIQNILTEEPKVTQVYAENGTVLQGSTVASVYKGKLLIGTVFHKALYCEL
light: B1 light
B3 returned an EC50 in assay [4] of 0.96 nM.
